Laboratory results published in a protein production outcome set (Wang et al. 2014).

experiment: label from the status in PepcDB records

Sequence | protein production
MALPLVSSVSYIKSSNQFHCSFSLRKEKFELSSFFIVLCSHFSYVDTAERLELDRLLLWSSHQKIRFSKRTFSQRIVVKMSASTLPMNLGKAKKVWIWTMCKEVMTVAVERGWNTFIFSSDNRKLSNEWSSIALMDTLFIEEKKVIDGTGNVVASVFEVSTPEELRSLNIENEQIENIVLDFLDWKSIPAENLVAALQGSEKTVFAVSNTPSEAKLFLEALEHGLGGIILKSEDVKAVLDLKEYFDKRNEESDTLSLTEATITRVQMVGMGDRVCVDLCSLMRPGEGLLVGSFARGLFLVHSECLESNYIESRPFRVNAGPVHAYVAVPGGKTCYLSELRTGREVIVVDQKGKQRTAVVGRVKIEKRPLIVVEAKLSTKEEETVYSIILQNAETVALVTPHQVNSSGRTAVPVTSLKPGDQVLIRLQGGARHTGIEIQEFIVEN | failed
MALPPYDPNFTLAFSYGRRDNVFENDPEHDESASAAIVAVELISSARLALKLDSVRTEYSAQYLVDKAGSRNLRRRRKLTVKDCLNFALKKGGIPRAEDWPPLGSESKTPSSYEPALVSMKGEVIEPKDMDEVPELLVHQSAVGAKLHVFTPHIELQQDVSAIAYARYVGLRDGIVVGTEKIQGKSMAIVKVWYKKKFVVVKVALSRMFYLAGVGPSVLLVDFCVPRLSID | failed
MALSGGDDQVPPGGPMTVSTRLIDAGSTIMQRRLPVKQMNTHVSTFAIYGGDMSRLIGTHHYVHRVNDEFLQCAVYASDRSDAPLIGIEYVISDRLYETLSEDEQKLWHSHAYEVKSGSWAYPRLPEVVAAPELKNIAKTYGKFWCTWQIDRGDKLPMGAPELMMSPQGVGQGVLRPELVKRRDEKYNISTDDLKHTRAEIAEPEWINPMADYWKQHGKCFVLDIATVEMNRHAQFP | failed
MAMKIPKSGYNRFMKEGAQHFKGTDEAVQRNIEACTELASQIRSAYGPNGMNKMVINHIEKLFVTNDAATILKELEIQHPAARIIIMATEMQEKQIGDNTNTVVILAAALLEHAANLIHMGMTPQEVAAGYEQAAEKALEILPTLVVKEATDMKNIEEVRQYIRSAITSKQYDNEDIIADLVAKACVTTCPANSFNFNVDNIRICKIIGSGVHTSTVMNGMVFKRGAEGEIREARDARIAVYTCPFDLTQTETKGTVLIENADELRNFSKGEEAEVEEQVKAIADNARSSILAKFWLMNFSKGEEAEVEEQQVKAIADNGVKVVVAAGKFGDMYLHFLNKYKIMAVRLTSKFDLRRLCRTVGAQPQARICAPAVNLLGHCDSVAVQEIGDENVVVFDKKSETGKVATIIIRGSSQSRIDDVERAVDDAVNTYKALTKDGKLLAGAGAVEIELAKEIESFGAKAPGLEQYAIKKFAHALETLPKAIAENAGMPTTETLTKLYAEHVAGKKNAGIDIWKRETMDAVVNNIFDLYAGKRLAIKLATDAASTILKVDQIIMSKQATGGPKPRGPKAQDEDDDGMA | failed
MAMNGTITTWFKDKGFGFIKDENGDNRYFHVIKVANPDLIKKDAAVTFEPTTNNKGLSAYAVKVVPESKYIYIAGERLKLTSIKSYLVYSEEVPADTRIDKENTVLSVGVLMNSIRPKSVAEPDEIRSLKKLAITTFQGTTLIFSEDEIDVDATVKLLKVLEHHHHHH | not failed
MAMNLPADNEGKIKLAMSILVTIINDTGVPRNIRRAAANALTHLRDPRLSPAVRAANAISALEEVSQDPNMPFYARTRIWQVITILETVRD | failed
MAMPAHMTLTGEKQGKIDGSCELQGRENTIQLYEMKHDIHMPRNPHDGLPTGKRVHGPLSIVKMFDKSSPKLYQALCTGEHMKNVQIKWYRINKQGLEEHYFTTTLEDAIVVEMKPYMPMTLLPANEPYGHMEEVAFSYKKIKWTWEPNGIEAEDSWSVPK | failed
MAMSFSGAVLTGMASSFHSGAKQSSFGAVRVGQKTQFVVVSQRKKSLIYAAKGDGNILDDLNEATKKASDFVTDKTKEALADGEKAKDYVVEKNSETADTLGKEAEKAAAYVEEKGKEAANKAAEFAEGKAGEAKDATK | failed
MAMVSGRRSTLNPDAPLFIPAAVRQVEDFSPEWWQLVTTSTWYPDYWISQQQQGADGFYDNGENENGGGHIDVADLLPESFDFDDMEDFFDTDAAEFDQGFDGRMYYQAPSEFGFGKNGEMVKKSSGNRSPRSIVEPAKYAEKPAKWGNQRVAAAPRNIHQPR | failed
MANAIRLPPEAYPMSIAAQKNDDDRQARALAALAEKPDGIVEAIAAKAEVAPAEILAILPQGAAVSAPADRFDAIWNEMRGWGEILMIVQTGDIVLEVPGHLPEGTESHGWFNIHGDSPIGGHIKKDNCAAITFVDRGFHGRRSCSVWFMNAAGGAMFKIFVRRDENKELLAGQLAKFEELRDGFRGLEHHHHHH | not failed
MANATFSADKLKQLTLQITKLARVAGDFQINELKNFERSNIEHKGRSNDLVSYVDKETEKLLIESLTKLVPEAGFETEEGTVEQTQSGLRWIIDPLDGTTNFLHKLPLFSISIALVQDETLLIGVVHEPSRNECFYAWKNGGAYMNGERIETSSITEISDALIATGFPYSLRGKSDQYFTLIRHFVETTHGVRRLGSAAIDLCYVACGRFEAYFEFNLKPWDVAAGILIVREAGGIVSNYSGGDDHCQTAEEVCAAGRHIHPLMIDTFKKIW | failed
MANCFAPQLTFPSFSPRHFSPRMSHQSPKPSTSTTTSIFTSATKLLWGPSLPPGLLISTARTAWTTVWQLMMTQLAPSDSSGSYTRPTSKFRLDPTQFTSAASSELHLYVGLPCPWAHRTLIVRALKGLNDAVPVSIASPGQDGSWEFKNNNIPIKDKDKLIPSLDKANRCRNLKEVYKSRSGGYDGRCTVPMLWDLRKKDVVCNESYDIIEFFNSGLNKLARNDNLDLSPPELKEMIQGWNQIVYPKVNNGVYRCGFAQSQEAYDGAVNELFSTLDEIEDHLGSNRYLCGERLTLADVCLFTTLIRFDSVYNILFKCTKKKLVEYPNLYGYLREIYQIPGVAATCDISAIMDGYYKTLFPLNASGIQPAISSSGDQDSLWRPHNRDLVGKAIEAQLSV | failed
MANDGATVFWLSFLAIILGFLSWKFKKIGGISLIAISIYGLFVNGLFFIFAFVFLMIAGILSFKIKPTSPKDVKIAN | failed
MANDGYFEPTQELSDETRDMHRAIISLREELEAVDLYNQRVNACKDKELKAILAHNRDEEKEHAAMLLEWIRRCDPAFDKELKDYLFTNKPIAHE | not failed
MANFKVVVSDPKEARAYQIDIKDAEANALIGKSIGDVVDGSIFGLAGYKVQITGGCDGSGFVMKPDLPGPRRQRILTATGVGYVPKLPGQRRRKMMRGKEIAPDIVQVNAKVVEYGSKSIKALLGLETAEEAPAAELEHHHHHH | not failed
MANGPGCACPRCGAPRASGPECPRCGVIYAKARARAAPSPAPSGPGTSLPDPGAAGLALGMPARARWSGELDGARRELWIRAVAPPAALLLALALVSSGPGHALLRTFLSMWIHELGHAVTAWLCGHGAFPGPWRTPISSGRLPLVVIAVSGALAALAWRGWRSGRRAILAAGAAGLGVQLVCTLLPATTARALITFGGDAGCMVIGAALVATIWADPEGPLGRGSLRWGFLVIGAAALVDALHGWVRAWRDPGELPLGEIEGVGLSDASTLMQVHRWSASALSGRYVALGLACLAALGATYAVMLARARGAVAAERRAA | failed
MANGTTPSVGIALGSGAAKGWAHIGVLNGLAAMGIKPDKVAGCSVGALVGAAYAHDHLPELEEWVRSFSSWDVLGLMDIRWRKGGLIGGDKVFDVLQARIGDVNIENLNRPFAAVATDLYSGQEIWFTEGDLRQAVRASCSMPGILAPVRQGDRWLVDGAVVNPVPVSVSRAMGVDVVIAVDLYGYHSGRIQVLPVSMTSQKNVEAEMDMSARQETGFMDLFARGRDYVSNLTDKFSLGTKSNPGMIAVMSQSMGILEQRHKRARLMGDPPDICIVPEVGNIGTMEFHRADEAIAAGEAAVEKVAHLIEAALWKG | not failed
MANHVSLILPPLSLYIHIPWCVQKCPYCDFNSHTQKGTIPEAEYIQHLLADLSQDLVTYKTAIANRKIHSIFIGGGTPSLFSAEAIAYLLAEIKQRIAFAPKIEITLEANPGTAEAERFICYTEAGINRISMGIQSFEEEKLRKLGRIHDAHEAKQAVYFAKNALISPSRTVGLHSFNLDLMHGLPNQTLEQALADLNTAISLNPPHFSWYQLTIEPNTMFYYRQPTLPDDDELWAIFEQGHQLLTMAGYQQYETSAYAKQGFQCQHNLNYWRFGDYLAIGCGAHGKISYPSGEIYRFSKTKHPKGYMRGDYRDSQQSIQLDDRPFEFFMNRFRLLEPTPKQEFECYTGLDCERVRPTIDWALNKHYISETSTTWQVTQKGKLFLNELLAGFLTLEHHHHHH | failed
MANVAIIGTEKSGRTSLAANLGKKGTSSDITMYNNDKEGRNMVFVDAHSYPKTLKSLITALNISDIAVLCIPPQGLDAHTGECIIALDLLGFKHGIIALTRSDSTHMHAIDELKAKLKVITSGTVLQDWECISLNTNKSAKNPFEGVDELKARINEVAEKIEAENAELNSLPARIFIDHAFNVTGKGCVVLGVVKQGISKDKDKTKIFPLDRDIEIRSIQSHDVDIDSAPAGTRVGMRLKNVQAKDIERGFIISDKEIVTTDYTLECTVSKFTKKIEPASVLHLFVGLQSEPVRVEKILVDGNEVEEAKPGSTCVLELSGNKKLAYSKQDRFLLANLDLTQRFAAYGFSK | not failed
MANVDRRQMLLLSGLGATAAVLPVPRAAAVPNQTAASYVFADEFDGPAGSAPSAAKWTIAKARETIQDPTYWEQPGRIGQYRNDRRNVFLDGKSNLVIRAAKDGDTYYSAKLASVWEGGAGHTWEARIKFNCLTAGAWPAFWLGNTGEGELDIIEWYGNGSWPSATTVHAKSNGGEWKTHNIAVDNGWHRWRTQWDAEGARFWLDYTDGAQPYFEVAASSLPDWPFDQPGYTMFVVLNLAVAGSGGGDPSGGTYPADMLVDWVRVW | not failed
MAPCLENVACVNLSAMPPAPPSPQPVSHKQAATLCRQGRTCALKSGSNESGGSVTSTYTSYRLISQDIGKSLERVSKQPDVARETEYYREKIGSVKSIDDFMADTRLYNYALKAHGLEDMAYAKAFIRKVLTEGASDKNAFANKLSDNRYAELAKSLDFAGLGAAATATEAAKSGVIGNYARQTLEQEAGDDNNGVRLALYFERKAPTIKSGLDFLADDALAQVFRTTFNLPDAFAAADVDKQAALIEKSINIKDLQDPEKVGKLLERFTIMWEMQNPSTTYDPLAVFGSSSGYGISPDLLISINSLKLGGKLEHHHHHH | not failed
MAPDLSGTWYVLEGDPGEHLVVEALGERLSGIWTSRELAEAFLAHHPHLGMRVSALESRALKEAYLRALGMLQVEAVMVDYRPGTHRAQVARVKDLLEEVRRA | not failed
MAPFTLYTHAGPGPNPVKVAMALEHLGLDYDCIPLAFGEGKGTVKDPEYTSKVNPNGRVPGLIDHENNDFTVFESAAILQYLAEKTIQYDTSGKLAGSTPEERATVNKWLAWQVSGLGPYQGQLVWFLAFHEGAHGEKPNGSVIARYQAEVERLRSVLEKHLASAENGFVALGRLTIADFAILPWLKISVLAGSALKSFEEYPAINAYIKKLDALPEVQAAYKKAVPPMQ | failed
MAPLDSKSAGGEPGVWKSGRGRGRRLPKGRVYSDEALAAVRGVLGDRPRRRDLLIEFLHLIQDVYGHLSADHLAALAFEMKLGQAEVYETATFYAHFDVVKEGETPPPALTIRVCDSLSCALAGAEQLRAALEEGLDPGQVRVLRAPCMGRCDTAPVLELGHNHIDHATPEKVRAAIAAGDTHAHLPDYEGFDAYAAAGGYAVLKGLRAGGDWEAVQDSVLAAGLRGLGGAGFPSGRKWGFVRANPGPRYLAVNGDEGEPGTFKDRYYLERVPHLFLEGMLIAAWAVEAETCYIYMRDEYPAVLEILRREIAALEAAGIVAKGYIDLRRGAGAYICGEESAMIESIEGKRGLPRHRPPFVAQVGLFGRPTLVHNIETLHWVARVCREGPEVLNSIEKNGRKGLRSYSVSGRVARPGVHLLPAGSTIRDVIAAAGGMAAGHVFKAYQPGGPSSGLLPASMDDIPLDFDTLQPHGSFIGSAAVVVLSQQDSARDAALNMLRFFEDESCGQCTPCRAGCEKAVKLMQAEHWDQPLLEELCQVMADASICGLGQAAPNPIRLTMKHFAEEI | failed
